Values of other authors, collected in PMC3499705.
Read-outs that look alike come from different tables or passages of the source. Blank lines part the entries; values can stand above or below the substance they belong to.

How the values were obtained:
[1] = biological target: VPAC1 receptor N-terminal ectodomain (Homo sapiens) (UniProt P32241); assay: intrinsic tryptophan fluorescence
[2] = biological target: VPAC1 receptor N-terminal ectodomain (Homo sapiens) (UniProt P32241)
[3] = biological target: PACAP27 PACAP27 (Homo sapiens) (UniProt P18509); assay: intrinsic tryptophan fluorescence
Secretin (Homo sapiens) = Secretin (Homo sapiens) (UniProt P09683); assay: intrinsic tryptophan fluorescence
GRF (Homo sapiens) = GRF (Homo sapiens) (UniProt P01286); assay: intrinsic tryptophan fluorescence
[4] = biological target: VIP6-28 6-28 (Homo sapiens) (UniProt P01282); assay: intrinsic tryptophan fluorescence
[5] = biological target: Helodermin (Heloderma suspectum) (UniProt P04204); assay: intrinsic tryptophan fluorescence
[6] = biological target: VIP2-28 2-28 (Homo sapiens) (UniProt P01282); assay: intrinsic tryptophan fluorescence
PHM PHM (Homo sapiens) = PHM PHM (Homo sapiens) (UniProt P01282); assay: intrinsic tryptophan fluorescence
VIP (Homo sapiens) = VIP (Homo sapiens) (UniProt P01282)

Kd [1]: 10.1 µM
Substance: GRF (from UniProt P01286)

Kd [1]: 0.57 µM
Substance: PACAP27 PACAP27 (from UniProt P18509)

Kd [1]: 8 µM
Substance: PHM PHM (from UniProt P01282)

Kd [1]: 0.85 µM
Substance: VIP2-28 2-28 (from UniProt P01282)

Kd [2]: 0.54 µM
Substance: VIP (from UniProt P01282)

Substance: VPAC1 receptor 31-144 (from UniProt P32241)
Kd [3]: 0.57 µM
Kd (Secretin (Homo sapiens)): 16 µM
Kd (GRF (Homo sapiens)): 10.1 µM
Kd [4]: 0.85 µM
Kd [5]: 2.54 µM
Kd [6]: 0.85 µM
Kd (PHM PHM (Homo sapiens)): 8 µM
Kd (VIP (Homo sapiens)): 0.54 µM

Substance: helodermin (from UniProt P04204)
Kd [1]: 2.54 µM

Kd [1]: 16 µM
Substance: secretin (from UniProt P09683)
